Like-named read-outs stand apart in the source and are kept apart here.
T1: human CD200R1a protein (soluble recombinant) (human, UniProt Q8TD46 29-265)
T1 construct: Soluble protein used in BLI; also called human CD200R1 isoform a; not shown: His tag implied by capture on anti-Penta-HIS biosensors
T1 sequence: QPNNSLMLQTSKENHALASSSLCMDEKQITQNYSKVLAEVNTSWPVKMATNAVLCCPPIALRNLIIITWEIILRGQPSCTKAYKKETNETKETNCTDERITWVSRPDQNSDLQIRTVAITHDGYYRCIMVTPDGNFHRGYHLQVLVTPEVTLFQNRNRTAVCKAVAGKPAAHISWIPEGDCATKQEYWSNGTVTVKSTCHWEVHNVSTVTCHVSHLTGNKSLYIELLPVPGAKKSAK

T2: human CD200R1 isoform a on CHOK1 cells (CHOK1/hCD200R1a) (human, UniProt Q8TD46 25-348)
T2 construct: also called CHOK1/CD200R1a
T2 sequence: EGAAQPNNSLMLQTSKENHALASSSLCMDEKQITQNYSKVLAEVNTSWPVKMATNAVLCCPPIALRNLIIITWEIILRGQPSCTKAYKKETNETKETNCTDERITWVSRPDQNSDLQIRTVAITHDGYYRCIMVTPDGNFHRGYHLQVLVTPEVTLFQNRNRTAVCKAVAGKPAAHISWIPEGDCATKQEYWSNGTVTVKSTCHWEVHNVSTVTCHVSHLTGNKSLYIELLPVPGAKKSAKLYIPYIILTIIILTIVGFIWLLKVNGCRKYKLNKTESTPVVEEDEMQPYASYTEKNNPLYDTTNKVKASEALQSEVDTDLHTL

T3: CD200R1a on PathHunter Jurkat CD200R1a signaling cells (Eurofins DiscoverX, 93-1136C19) (human, UniProt Q8TD46 25-348)
T3 sequence: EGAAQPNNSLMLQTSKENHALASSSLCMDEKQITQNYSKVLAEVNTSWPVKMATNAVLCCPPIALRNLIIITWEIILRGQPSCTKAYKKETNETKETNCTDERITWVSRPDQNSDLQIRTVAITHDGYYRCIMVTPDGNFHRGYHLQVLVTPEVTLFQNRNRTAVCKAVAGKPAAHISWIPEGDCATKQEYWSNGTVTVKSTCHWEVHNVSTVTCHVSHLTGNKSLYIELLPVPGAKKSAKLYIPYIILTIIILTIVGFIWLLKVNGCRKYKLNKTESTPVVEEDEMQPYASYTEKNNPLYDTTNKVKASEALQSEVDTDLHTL

T4: Cynomolgus macaques CD200R1 isoform a on CHOK1 cells (CHOK1/cynoCD200R1a) (Cynomolgus macaques)
T4 chain: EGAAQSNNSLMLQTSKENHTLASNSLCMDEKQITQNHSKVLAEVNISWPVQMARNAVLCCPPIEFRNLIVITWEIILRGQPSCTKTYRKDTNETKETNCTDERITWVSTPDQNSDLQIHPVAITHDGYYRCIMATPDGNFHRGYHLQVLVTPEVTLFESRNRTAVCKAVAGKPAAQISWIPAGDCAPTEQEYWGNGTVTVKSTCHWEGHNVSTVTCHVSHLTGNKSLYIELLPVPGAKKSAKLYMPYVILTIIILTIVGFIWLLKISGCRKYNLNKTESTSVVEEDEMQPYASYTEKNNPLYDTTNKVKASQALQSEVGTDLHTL

B1: Fc-tagged human CD200 protein (Fc fusion)
chain: QVQVVTQDEREQLYTPASLKCSLQNAQEALIVTWQKKKAVSPENMVTFSENHGVVIQPAYKDKINITQLGLQNSTITFWNITLEDEGCYMCLFNTFGFGKISGTACLTVYVQPIVSLHYKFSEDHLNITCSATARPAPMVFWKVPRSGIENSTVTLSHPNGTTSVTSILHIKDPKNQVGKEVICQVLHLGTVTDFKQTVNKG
notes: also called hCD200; not shown: Fc tag

Assays:
[1] = biological target: B1; experiment: BLI (Octet), Fc-tagged hCD200 captured on anti-human Fc sensor, soluble CD200R1a as analyte, 1:1 fit
[2] = biological target: T1, human CD200R1a protein (soluble …); experiment: BLI in-tandem competition on His-captured human CD200R1a; row = 1st Ab (400 nM); competitor (2nd Ab) PR007223
Protocol: (§1) To determine if the anti-CD200R1 antibodies bind to human CD200R1a on different or approximate binding epitopes, epitope competition experiments for the anti-CD200R1 antibodies were performed by the ForteBlio Octet® RED96e platform. […] The in-tandem competition assay format was applied, and it contained two association steps. Firstly, the antigen-loaded biosensors bound to each antibody (i.e., First antibody, 1st Ab) at a saturating concentration of 400 nM for 300 seconds to reach equilibrium and then secondly bound to the competing antibodies (i.e., Second antibody, 2nd Ab) of 400 nM for 300 seconds. The second binding signals are recorded as the 100% signal of each antibody when the first antibodies are replaced by kinetic buffer. All the binding data were analyzed using ForteBlio Data Analysis 11.0 software. The inhibition rate was calculated by the following formula: […]

[3] = biological target: T1, human CD200R1a protein (soluble …); experiment: BLI in-tandem competition on His-captured human CD200R1a; row = 1st Ab (400 nM); competitor (2nd Ab) PR007221
Protocol: as §1

[4] = biological target: T1, human CD200R1a protein (soluble …); experiment: BLI in-tandem competition on His-captured human CD200R1a; row = 1st Ab (400 nM); competitor (2nd Ab) PR006207
Protocol: as §1

[5] = biological target: T1, human CD200R1a protein (soluble …); experiment: BLI in-tandem competition on His-captured human CD200R1a; row = 1st Ab (400 nM); competitor (2nd Ab) PR007973
Protocol: as §1

[6] = biological target: T2, human CD200R1 isoform a on CHOK1 cells …; experiment: flow cytometry, CHOK1/hCD200R1a cells (FITC-Mean); table beside the curves
Protocol: This example is intended to investigate the in vitro binding activity of human anti-CD200R1 monoclonal antibodies to human/Cynomolgus macaques CD200R1a expressed on the surface of cells. The anti-CD200R1 antibodies were produced as described in Example 3.4 and the binding experiments at the cell level were performed using CHOK1/hCD200R1a and CHOK1-cynoCD200R1a.
Briefly, CHOK1/hCD200R1a cells and CHOK1-cynoCD200R1a cells were digested, and collected, and then were resuspended in PBS containing 2% BSA, respectively. The cell density was adjusted to 1×10⁶ cells/mL. The cells were seeded in a 96-well V-bottom plate (Corning, #3894) at 100 μL/well, followed by the addition of test antibodies and reference antibodies in a series diluted concentration, each at 100 μL/well. The cells were incubated away from light at 4° C. for 1 h. Thereafter, the cells in each well were rinsed twice with 100 μL of pre-cooled PBS containing 2% BSA, and centrifuged at 500 g at 4° C. for 5 min, and then the supernatant was discarded. 100 μL of fluorescent secondary antibody (Alexa Fluor 488-conjugated AffiniPure Goat Anti-Human IgG, Fcγ Fragment Specific, Jackson, #109-545-098, diluted in a 1:1000 ratio) was added in each well, and the plate was incubated away from light at 4° C. for 1 h. The cells in each well were rinsed twice with 100 μL of pre-cooled PBS containing 2% BSA, and centrifuged at 500 g at 4° C. for 5 min, and then the supernatant was discarded. Finally, the cells in each well were resuspended in 200 μL of pre-cooled PBS containing 2% BSA, and the fluorescence signal values were read using a BD CantoII flow cytometer.

[7] = biological target: T3, CD200R1a on PathHunter Jurkat CD200R1a …; experiment: cell-based or functional assay
[8] = biological target: T2, human CD200R1 isoform a on CHOK1 cells …; experiment: flow cytometry blocking assay: antibody titrated against biotin-labelled human CD200 binding to CHOK1/hCD200R1a cells; head prints EC50 without unit, x axis Log [Ab] (nM), y axis Inhibition %
Protocol: (§2) In brief, CHOK1/hCD200R1a cells were digested and resuspended in 2% BSA in PBS. […] The cells were placed at 4° C. and incubated for 1 hour in the dark. […] 100 μL/well of pre-cooled PBS containing 2% BSA was added to rinse the cells twice, centrifugation was performed at 500 g, 4° C. for 5 minutes, and the supernatant was discarded. Fluorescent secondary antibody (PE Streptavidin, BD, Cat #: 554061, 1:200) was added at 100 μL/well, and incubation was performed at 4° C. for 30 minutes in the dark. The cells were washed twice with 200 μL/well of pre-cooled PBS, and were centrifuged at 500 g, 4° C. for 5 minutes, and the supernatant was discarded. Finally, 200 μL/well of pre-cooled PBS was used to resuspend the cells, and the fluorescence signal values were read using ACEA Novocyte 3000 flow cytometer. IC50 values were calculated.

[9] = biological target: T2, human CD200R1 isoform a on CHOK1 cells …; experiment: flow cytometry blocking assay: biotin-labelled human CD200 binding to CHOK1/hCD200R1a cells; y axis Inhibition %
Protocol: as §2

[10] = biological target: T4, Cynomolgus macaques CD200R1 isoform a …; experiment: flow cytometry, CHOK1/cynoCD200R1a cells (APC-A Mean); table beside the curves
[11] = biological target: T3, CD200R1a on PathHunter Jurkat CD200R1a …; experiment: cell-based or functional assay; remark: listed apart in the source
[12] = biological target: T2, human CD200R1 isoform a on CHOK1 cells …; experiment: flow cytometry, CHOK1/hCD200R1a cells (FITC-Mean); table beside the curves, head without unit, x axis Log [Ab] (nM)
[13] = biological target: T1, human CD200R1a protein (soluble …); experiment: BLI (Octet), Fc-tagged hCD200 captured on anti-human Fc sensor, soluble CD200R1a as analyte, 1:1 fit

| EC50 [10] [pM] | MFI (MAX) [10] | Binder | MFI(Max) [6] | IC50 of the inhibition of CD200-induced PathHunter Jurkat CD200R1a luminescence (CHOK1/hCD200 cells as CD200 source) [7] [pM] | EC50 [8] [pM] | Blocking(Max) [9] [%] | EC50 [12] [pM] | also measured |
| --- | --- | --- | --- | --- | --- | --- | --- | --- |
| – | – | Cyno CD200R1a-His (receptor, Soluble protein used in BLI; also called Cynomolgus macaques CD200R1a recombinant protein; not shown: His tag) EGAAQSNNSLMLQTSKENHTLASNSLCMDEKQITQNHSKVLAEVNISWPVQMARNAVLCCPPIEFRNLIVITWEIILRGQPSCTKTYRKDTNETKETNCTDERITWVSTPDQNSDLQIHPVAITHDGYYRCIMATPDGNFHRGYHLQVLVTPEVTLFESRNRTAVCKAVAGKPAAQISWIPAGDCAPTEQEYWGNGTVTVKSTCHWEGHNVSTVTCHVSHLTGNKSLYIELLPVPGAKKSAK | – | – | – | – | – | Kd [1]: 197000 pM; koff [1]: 0.0316 s⁻¹; kon [1]: 161000 M⁻¹ s⁻¹ |
| – | – | PR006207 (antibody, human IgG1, kappa, L234A L235A, V domains shown, also called recombinant antibody of I-4P) VH: QVQLVQSGAEVKKPGASVKVSCKASGFSFSSGYYMAWVRQAPGQGLEWMGLIGVGSGSLWYAQKFQGRVTMTRDTSTSTVYMELSSLRSEDTAVYYCARHFALSDPFNLWGQGTLVTVSS VL: EIVLTQSPDFQSVTPKEKVTITCQASESIDSYLLWYQQKPDQSPKLLIKQASTLASGVPSRFSGSGSGTDFTLTINSLEAEDAATYYCQNYYDISSNDFGGGTKVEIKR | – | – | – | – | – | Inhibition ratio (%) [2]: -38.6%; Inhibition ratio (%) [3]: -36.2%; Inhibition ratio (%) [4]: 97.6%; Inhibition ratio (%) [5]: -39.9% |
| 20500 | 33400 | PR006895 (antibody, human IgG1, kappa, Fc variant of PR006480: human IgG1 with L234A, L235A, G237A (EU)) heavy: not shown light: DIQMTQSPPSLSASVGDRVTITCRASQSISSYLNWFQQKAGKAPKLLISATSNLQSGVPSRFSGSGSGTDFTLTISSLQPEDLATYYCQQSYSSPYTFGQGTKVEIKRTVAAPSVFIFPPSDEQLKSGTASVVCLLNNFYPREAKVQWKVDNALQSGNSQESVTEQDSKDSTYSLSSTLTLSKADYEKHKVYACEVTHQGLSSPVTKSFNRGEC | 8410 | 988 | 339 | 49.8 | 172 | IC50 of the inhibition of CD200-induced PathHunter Jurkat CD200R1a luminescence (CHOK1/hCD200 cells as CD200 source) [11]: 886 pM |
| 6860 | 50100 | PR007442 (antibody, human IgG1, kappa, PTM variant of PR006895 (human IgG1)) heavy: not shown light: DIQMTQSPPSLSASVGDRVTITCRASQSISSYLNWFQQKAGKAPKLLISATSNLQSGVPSRFSGSGSGTDFTLTISSLQPEDLATYYCQQTLSSPYTFGQGTKVEIKRTVAAPSVFIFPPSDEQLKSGTASVVCLLNNFYPREAKVQWKVDNALQSGNSQESVTEQDSKDSTYSLSSTLTLSKADYEKHKVYACEVTHQGLSSPVTKSFNRGEC | 8850 | 844 | 190 | 80 | 108 | – |
| – | – | B1 | – | – | – | – | – | Kd [13]: 77100 pM; koff [13]: 0.0177 s⁻¹; kon [13]: 230000 M⁻¹ s⁻¹ |

— US20250313626A1 (HARBOUR BIOMED SHANGHAI, published 2025)
